Article PMC9271190
Where two headings read alike, the source gives them in different places.

T1: HERV-K reverse transcriptase (RT) (Human endogenous retrovirus K (Homo …, UniProt V9H0F6 1-596))
T1 sequence: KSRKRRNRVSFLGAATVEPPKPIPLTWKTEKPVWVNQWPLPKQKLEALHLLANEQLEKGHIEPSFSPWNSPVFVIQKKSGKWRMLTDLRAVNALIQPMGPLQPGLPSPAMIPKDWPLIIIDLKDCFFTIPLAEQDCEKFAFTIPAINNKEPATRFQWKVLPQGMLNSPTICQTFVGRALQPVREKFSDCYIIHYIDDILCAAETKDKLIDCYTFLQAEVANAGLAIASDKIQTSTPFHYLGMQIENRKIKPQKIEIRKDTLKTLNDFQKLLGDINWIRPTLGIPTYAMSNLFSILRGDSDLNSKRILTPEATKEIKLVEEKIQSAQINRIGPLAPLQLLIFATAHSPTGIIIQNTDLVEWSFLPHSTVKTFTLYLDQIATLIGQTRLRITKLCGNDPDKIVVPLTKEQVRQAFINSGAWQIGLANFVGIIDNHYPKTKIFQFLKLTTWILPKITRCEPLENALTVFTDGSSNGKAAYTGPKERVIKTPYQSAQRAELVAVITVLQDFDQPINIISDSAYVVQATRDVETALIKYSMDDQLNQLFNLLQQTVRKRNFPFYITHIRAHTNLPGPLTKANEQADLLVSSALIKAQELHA


Columns and labels:
[1] = target: T1, HERV-K reverse transcriptase (RT); assay: X-ray crystallography
[2] = target: T1, HERV-K reverse transcriptase (RT); assay: X-ray crystallography; remark: listed apart in the source

Binder | binding result [1] | binding result [2]
U5-PBS DNA template/primer, unextended (primer ends in G) (dsDNA) DNA 1: GGGACCTGAAAGCGAAAGGGAAAC DNA 2: GTTTCCCTTTCGCTTTCAGG | binds | 
U5-PBS DNA template/primer extended by ddT (dsDNA, primer 3'-terminal 2',3'-dideoxy-T (incorporated from ddTTP)) DNA 1: GGGACCTGAAAGCGAAAGGGAAAC DNA 2: GTTTCCCTTTCGCTTTCAGGT |  | binds
